From US20120294802A1 (published 2012) come the findings set out here.

Numbering of substitutions follows the chain as printed.

A word on the EC50: it is the concentration giving half of the maximal effect.

The target in this test is T1, human Calcitonin Gene Related Peptide alpha (C-terminal amide (-NH2 printed after the last residue F; the filing words it as 'the N-terminal phenylalanine is amidated'); 125I radiolabeled in the receptor binding assay of Example 6).
T1 peptide: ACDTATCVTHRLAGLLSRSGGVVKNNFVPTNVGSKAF
Briefly: ELISA. (In general: ELISA stands for enzyme-linked immunosorbent assay.)

B1: Antibody Ab1 (antibody, V domains shown)
VH: QSLEESGGRLVTPGTPLTLTCTVSGLDLSSYYMQWVRQAPGKGLEWIGVIGINDNTYYASWAKGRFTISRASSTTVDLKMTSLTTEDTATYFCARGDIWGPGTLVTVSS
VL: QVLTQTASPVSAAVGSTVTINCQASQSVYDNNYLAWYQQKPGQPPKQLIYSTSTLASGVSSRFKGSGSGTQFTLTISDLECADAATYYCLGSYDCSSGDCFVFGGGTEVVVKR
As for B1, the EC50 turned out to be 103 pM.

B2: Antibody Ab4 (antibody, V domains shown)
VH: B1 VH with T22S, L26I, S30G, Q34N, D54G, N55A, R70K, A71T
VL: QVLTQTPSPVSAAVGSTVTINCQASQSVYHNTYLAWYQQKPGQPPKQLIYDASTLASGVPSRFSGSGSGTQFTLTISGVQCNDAAAYYCLGSYDCTNGDCFVFGGGTEVVVKR
As to B2, the EC50 is 88 pM.

B3: Antibody Ab3 (antibody)
heavy: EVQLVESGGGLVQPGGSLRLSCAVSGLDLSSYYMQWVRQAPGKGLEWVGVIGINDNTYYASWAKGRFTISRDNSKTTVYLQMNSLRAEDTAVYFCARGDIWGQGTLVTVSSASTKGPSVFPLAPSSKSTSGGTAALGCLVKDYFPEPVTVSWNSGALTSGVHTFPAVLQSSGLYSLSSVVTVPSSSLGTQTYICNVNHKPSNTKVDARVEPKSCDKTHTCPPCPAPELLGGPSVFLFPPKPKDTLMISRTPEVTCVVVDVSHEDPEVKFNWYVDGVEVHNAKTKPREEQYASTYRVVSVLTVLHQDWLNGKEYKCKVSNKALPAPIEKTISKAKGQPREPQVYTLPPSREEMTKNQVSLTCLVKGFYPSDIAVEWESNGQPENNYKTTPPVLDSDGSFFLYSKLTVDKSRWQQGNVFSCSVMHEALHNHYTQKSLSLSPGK
light: QVLTQSPSSLSASVGDRVTINCQASQSVYDNNYLAWYQQKPGKVPKQLIYSTSTLASGVPSRFSGSGSGTDFTLTISSLQPEDVATYYCLGSYDCSSGDCFVFGGGTKVEIKRTVAAPSVFIFPPSDEQLKSGTASVVCLLNNFYPREAKVQWKVDNALQSGNSQESVTEQDSKDSTYSLSSTLTLSKADYEKHKVYACEVTHQGLSSPVTKSFNRGEC
As to B3, the EC50 came out at 154 pM.

B4: Antibody Ab2 (antibody)
heavy: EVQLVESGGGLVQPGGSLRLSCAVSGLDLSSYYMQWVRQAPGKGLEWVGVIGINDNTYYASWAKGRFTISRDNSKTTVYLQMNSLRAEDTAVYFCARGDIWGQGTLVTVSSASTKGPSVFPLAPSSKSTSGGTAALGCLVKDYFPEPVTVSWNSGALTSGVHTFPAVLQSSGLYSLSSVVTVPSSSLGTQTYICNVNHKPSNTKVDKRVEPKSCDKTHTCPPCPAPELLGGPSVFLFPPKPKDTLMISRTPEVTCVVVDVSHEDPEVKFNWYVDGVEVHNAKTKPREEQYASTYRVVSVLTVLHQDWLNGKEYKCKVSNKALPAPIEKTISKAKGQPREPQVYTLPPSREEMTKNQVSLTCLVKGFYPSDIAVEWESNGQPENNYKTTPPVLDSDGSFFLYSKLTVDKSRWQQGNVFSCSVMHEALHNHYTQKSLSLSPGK
light: B3 light
Consider B4, for which the EC50 was 83 pM.
